Drawing on publication PMC7743911 (Nature communications, 2015), this text covers Kd for one molecule.

Numbering of substitutions follows the chain as printed. Values joined by “and” are separate entries in the source; they are usually repeats but may differ in a detail not shown here. Equal values may be shown once. Non-standard residues stand in square brackets, D forms with d. No end group written: not given here. pY = N[C@@H](Cc1ccc(OP(=O)(O)O)cc1)C(=O)O

As usually defined, the Kd is a measure of binding affinity in units of concentration. Read a high Kd as a looser complex.

The target in experiment [1] is T1, STAT5B N642H mutant (residues 128 to 717), non-phosphorylated (human, UniProt P51692 128-717, N642H).
T1 sequence (looked up): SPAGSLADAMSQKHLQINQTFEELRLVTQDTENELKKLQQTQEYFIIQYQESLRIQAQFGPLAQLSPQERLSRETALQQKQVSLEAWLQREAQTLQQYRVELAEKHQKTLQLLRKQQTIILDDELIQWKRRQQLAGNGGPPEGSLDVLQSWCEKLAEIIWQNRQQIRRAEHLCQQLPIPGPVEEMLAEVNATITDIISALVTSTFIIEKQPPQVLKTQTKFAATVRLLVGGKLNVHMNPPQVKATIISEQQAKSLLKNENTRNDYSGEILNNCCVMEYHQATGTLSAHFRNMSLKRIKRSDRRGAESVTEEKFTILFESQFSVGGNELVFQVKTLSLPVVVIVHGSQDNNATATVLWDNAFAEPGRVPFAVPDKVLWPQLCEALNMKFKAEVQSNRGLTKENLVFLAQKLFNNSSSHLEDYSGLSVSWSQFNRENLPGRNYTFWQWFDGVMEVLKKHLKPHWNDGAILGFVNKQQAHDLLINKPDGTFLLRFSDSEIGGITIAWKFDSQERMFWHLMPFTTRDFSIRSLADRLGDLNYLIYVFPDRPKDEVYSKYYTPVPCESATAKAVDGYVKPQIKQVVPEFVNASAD
In words: SPR.

Experiment [2] has as its target T2, STAT5B wild type (residues 128 to 717), non-phosphorylated (human, UniProt P51692 128-717).
T2 sequence (looked up): T1 sequence (looked up) with H515N
Briefly: SPR.

Regarding KAVDG[pY]VKPQI [STAT5B phosphopeptide KAVDG(p)YVKPQI], the Kd is 3.23 µM and 2.9 µM in experiment [1]; 15.6 µM and 14 µM in experiment [2].
